{"source": "paper PMC2905227", "about": "(Journal of the American Chemical Society, 2010)", "binders": {"B1": {"name": "wild-type E. coli ribonucleotide reductase β2 subunit (enzyme, UniProt P69924 1-376, looked up)", "chain": "MAYTTFSQTKNDQLKEPMFFGQPVNVARYDQQKYDIFEKLIEKQLSFFWRPEEVDVSRDRIDYQALPEHEKHIFISNLKYQTLLDSIQGRSPNVALLPLISIPELETWVETWAFSETIHSRSYTHIIRNIVNDPSVVFDDIVTNEQIQKRAEGISSYYDELIEMTSYWHLLGEGTHTVNGKTVTVSLRELKKKLYLCLMSVNALEAIRFYVSFACSFAFAERELMEGNAKIIRLIARDEALHLTGTQHMLNLLRSGADDPEMAEIAEECKQECYDLFVQAAQQEKDWADYLFRDGSMIGLNKDILCQYVEYITNIRMQAVGLDLPFQTRSNPIPWINTWLVSDNVQVAPQEVEVSSYLVGQIDSEVDTDDLSNFQL", "modifications": "tyrosyl radical at Y122 (1-1.2 radicals per β2), diferric cluster"}}, "assay_in_all_cases": "competitive inhibition of enzyme activity", "key": {"[NO2Y731]-α2(Y730F)": {"target": "T1, [NO2Y731]-α2(Y730F) (E. coli, UniProt P00452 1-761, Y730F, 3-nitrotyrosine (NO2Y) in place of Y731)", "T1 sequence (looked up)": "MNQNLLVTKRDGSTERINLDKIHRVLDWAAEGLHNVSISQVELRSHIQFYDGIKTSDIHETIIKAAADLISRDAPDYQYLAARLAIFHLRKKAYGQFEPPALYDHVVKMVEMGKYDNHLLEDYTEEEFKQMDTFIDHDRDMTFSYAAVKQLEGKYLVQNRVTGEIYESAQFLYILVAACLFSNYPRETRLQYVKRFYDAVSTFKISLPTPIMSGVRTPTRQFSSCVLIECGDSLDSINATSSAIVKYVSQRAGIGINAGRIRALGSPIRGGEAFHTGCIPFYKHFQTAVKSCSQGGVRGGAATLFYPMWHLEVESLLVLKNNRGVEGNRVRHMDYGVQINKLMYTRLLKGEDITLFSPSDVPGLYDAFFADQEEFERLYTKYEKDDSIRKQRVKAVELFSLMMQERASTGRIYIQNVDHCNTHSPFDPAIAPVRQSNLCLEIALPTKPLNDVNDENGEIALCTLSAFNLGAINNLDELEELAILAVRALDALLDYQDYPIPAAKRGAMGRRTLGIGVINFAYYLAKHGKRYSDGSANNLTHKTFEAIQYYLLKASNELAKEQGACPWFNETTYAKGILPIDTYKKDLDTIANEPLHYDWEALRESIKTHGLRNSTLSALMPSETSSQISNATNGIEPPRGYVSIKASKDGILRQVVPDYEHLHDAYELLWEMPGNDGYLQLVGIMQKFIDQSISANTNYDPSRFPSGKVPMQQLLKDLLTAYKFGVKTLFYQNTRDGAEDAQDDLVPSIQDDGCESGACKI"}, "[NO2Y730]-α2(Y731A)": {"target": "T2, [NO2Y730]-α2(Y731A) (E. coli, UniProt P00452 1-761, Y731A, 3-nitrotyrosine (NO2Y) in place of Y730)", "T2 sequence (looked up)": "T1 sequence (looked up) with F730Y, Y731A"}, "[1]": {"target": "T3, wild-type E. coli ribonucleotide reductase α2 subunit (E. coli, UniProt P00452 1-761)", "T3 sequence (looked up)": "T1 sequence (looked up) with F730Y"}}, "note": "Changes are numbered by the printed parent chain."}
{"binder": "B1", "values": [{"measurement": "Kd", "setting": "[NO2Y731]-α2(Y730F)", "result": "500 ± 40", "unit": "nM"}, {"measurement": "Kd", "setting": "[NO2Y730]-α2(Y731A)", "result": "2710 ± 130", "unit": "nM"}, {"measurement": "binding result", "setting": "[1]", "result": "binds"}]}
